The target of experiment [1] is T1, recombinant human VEGFR2 extracellular domain (human, UniProt P35968 20-764).
T1 construct: extracellular domain; also called KDR; Flk-1
The experiment in a line: SPR (BIAcore 3000), VEGFR2 amine-coupled to CM5 chip, scVEGF as analyte, 1:1 model.

Experiment [2] deals with T2, VEGFR2 on SVR angiosarcoma cells (murine cell line) (murine, UniProt P35918 20-1345).
T2 construct: whole, on cells
Kind of experiment: flow cytometry titration on SVR cells, optimized conditions of Example 3, anti-FLAG detection.

In experiment [3] the target is T3, human VEGFR2 on cells (PAE/KDR cells, HUVEC) (human, UniProt P35968 20-1356).
T3 construct: whole, on cells
The experiment in a line: flow cytometry titration on HUVEC, anti-FLAG detection.

For experiment [4], the target named is T3, human VEGFR2 on cells (PAE/KDR cells, …). Kind of experiment: flow cytometry titration on HUVEC, optimized conditions of Example 3, anti-FLAG detection. On the technique in general: A flow cytometer gives signals particle by particle.
The target is the same in experiment [5]. The experiment in a line: flow cytometry titration on PAE/KDR cells, anti-FLAG detection.
In experiment [6] the target is T4, porcine αvβ3 integrin on PAE cells (porcine, UniProt A0A5K1V6L8 31-1052; A0A8D0RDV2 33-793).
T4 construct: whole, on cells
Kind of experiment: flow cytometry on PAE cells.

For experiment [7], the target named is T3, human VEGFR2 on cells (PAE/KDR cells, …). Kind of experiment: flow cytometry titration on PAE/KDR cells, optimized conditions of Example 3, anti-FLAG detection.
Experiment [8] concerns the target T5, human αvβ3 integrin on cells (human, UniProt P06756 31-1048; P05106 27-788).
T5 construct: whole, on cells; also called avb3; alpha v beta 3
The experiment in a line: flow cytometry on U87MG cells (no VEGFR2; receptor not named by the filing).

The target in experiment [9] is T6, α5β1 integrin on wild-type K562 cells (UniProt P08648 42-1049; P05556 21-798, limits assumed).
T6 construct: whole, on cells
The experiment in a line: flow cytometry on wild-type K562 cells.

In experiment [10] the target is T7, αvβ5 integrin on transfected K562 cells (UniProt P06756 31-1048; P18084 24-799, limits assumed).
T7 construct: whole, on cells
Kind of experiment: flow cytometry on K562 cells transfected with αvβ5.

The target in experiment [11] is T8, αiibβ3 integrin on transfected K562 cells (UniProt P08514 32-1039; P05106 27-788, limits assumed).
T8 construct: whole, on cells
The experiment in a line: flow cytometry on K562 cells transfected with αiibβ3.

Experiment [12] has as its target T2, VEGFR2 on SVR angiosarcoma cells …. The experiment in a line: flow cytometry titration on SVR cells, anti-FLAG detection.
Experiment [13] deals with T4, porcine αvβ3 integrin on PAE cells. The experiment in a line: flow cytometry titration on PAE cells, anti-FLAG detection.
Experiment [14] concerns the target T5, human αvβ3 integrin on cells. Kind of experiment: flow cytometry titration on K562-αvβ3 cells, anti-His detection.
In experiment [15] the target is VEGFR2 and αvβ3 integrin, both expressed on SVR angiosarcoma cells (murine cell line) (murine) (UniProt P35918). The experiment in a line: flow cytometry titration on SVR cells (VEGFR2 and αvβ3 both present), anti-FLAG detection.
Experiment [16] concerns the target T3, human VEGFR2 on cells (PAE/KDR cells, …). Kind of experiment: flow cytometry titration on PAE/KDR cells (also carry porcine αvβ3; filing ascribes binding to VEGFR2), anti-FLAG detection.
Experiment [17] has as its target T5, human αvβ3 integrin on cells. The experiment in a line: cell-based or functional assay.
The target is the same in experiment [18]. The experiment in a line: flow cytometry titration on U87MG cells (no VEGFR2; receptor not named by the filing), anti-FLAG detection.
Experiment [19] addresses VEGFR2 and αvβ3 integrin, both expressed on human umbilical vein endothelial cells (HUVEC) (human) (UniProt P35968). Kind of experiment: flow cytometry titration on HUVEC (VEGFR2 and αvβ3 both present), anti-FLAG detection.
For experiment [20] the target is unchanged. Kind of experiment: cell-based or functional assay.
Experiment [21] deals with T5, human αvβ3 integrin on cells. Kind of experiment: flow cytometry titration on K562-αvβ3 cells.

8 molecules from patent publication US20160039895A1 (published 2016) can be followed below.

As usually defined, the Kd is the concentration at which binding is half-saturated. A word on the koff: it is the first-order rate constant of dissociation. The kon is the rate constant with which the complex forms.

Where only a bound is given, the exact number is not on record here.

T1 sequence (P35968 20-764): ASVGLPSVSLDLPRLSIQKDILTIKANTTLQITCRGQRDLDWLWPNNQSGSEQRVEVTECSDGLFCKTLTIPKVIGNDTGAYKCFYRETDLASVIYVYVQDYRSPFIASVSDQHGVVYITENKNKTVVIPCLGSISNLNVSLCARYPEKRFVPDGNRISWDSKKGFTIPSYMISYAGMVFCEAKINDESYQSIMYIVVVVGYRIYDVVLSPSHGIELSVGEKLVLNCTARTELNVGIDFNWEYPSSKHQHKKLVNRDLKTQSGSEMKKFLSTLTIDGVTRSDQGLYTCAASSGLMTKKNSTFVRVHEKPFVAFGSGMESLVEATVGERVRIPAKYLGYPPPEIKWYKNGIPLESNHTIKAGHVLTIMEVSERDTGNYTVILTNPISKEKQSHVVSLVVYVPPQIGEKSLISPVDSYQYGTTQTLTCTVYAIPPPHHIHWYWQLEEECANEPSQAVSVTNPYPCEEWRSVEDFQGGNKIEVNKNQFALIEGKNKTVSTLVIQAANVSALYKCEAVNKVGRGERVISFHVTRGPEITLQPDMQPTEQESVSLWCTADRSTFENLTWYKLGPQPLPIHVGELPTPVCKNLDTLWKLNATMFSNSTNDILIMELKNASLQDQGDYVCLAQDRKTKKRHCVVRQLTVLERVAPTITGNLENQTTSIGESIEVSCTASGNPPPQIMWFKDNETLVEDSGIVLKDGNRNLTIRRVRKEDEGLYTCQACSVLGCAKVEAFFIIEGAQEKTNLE
T6 sequence (P08648 42-1049 limits assumed, chain 1 of 2): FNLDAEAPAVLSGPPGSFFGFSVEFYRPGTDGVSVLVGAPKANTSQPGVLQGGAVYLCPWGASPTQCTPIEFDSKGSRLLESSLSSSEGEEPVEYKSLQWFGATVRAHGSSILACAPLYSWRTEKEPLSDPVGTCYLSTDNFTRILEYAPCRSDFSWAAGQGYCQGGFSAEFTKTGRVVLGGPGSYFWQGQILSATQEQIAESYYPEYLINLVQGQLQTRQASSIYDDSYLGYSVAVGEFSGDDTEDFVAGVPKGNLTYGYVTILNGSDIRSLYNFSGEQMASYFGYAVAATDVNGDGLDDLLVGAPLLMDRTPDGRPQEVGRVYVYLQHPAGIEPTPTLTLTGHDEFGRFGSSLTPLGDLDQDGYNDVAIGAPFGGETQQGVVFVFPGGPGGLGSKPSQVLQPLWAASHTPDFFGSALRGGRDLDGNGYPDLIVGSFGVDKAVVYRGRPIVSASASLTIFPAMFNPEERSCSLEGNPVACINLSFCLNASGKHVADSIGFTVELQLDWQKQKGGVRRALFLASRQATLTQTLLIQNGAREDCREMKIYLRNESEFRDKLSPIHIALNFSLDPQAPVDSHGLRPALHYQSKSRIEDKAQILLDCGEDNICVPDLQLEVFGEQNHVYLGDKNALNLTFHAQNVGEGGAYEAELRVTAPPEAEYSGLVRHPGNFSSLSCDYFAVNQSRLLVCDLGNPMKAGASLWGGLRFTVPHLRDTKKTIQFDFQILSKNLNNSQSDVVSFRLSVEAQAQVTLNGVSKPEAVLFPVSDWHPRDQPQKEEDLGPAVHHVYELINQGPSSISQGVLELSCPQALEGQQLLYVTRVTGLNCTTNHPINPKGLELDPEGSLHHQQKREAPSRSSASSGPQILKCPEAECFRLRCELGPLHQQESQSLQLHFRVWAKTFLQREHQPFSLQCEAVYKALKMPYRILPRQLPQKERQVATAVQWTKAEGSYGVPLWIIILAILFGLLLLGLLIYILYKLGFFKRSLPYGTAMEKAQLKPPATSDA
T6 sequence (P05556 21-798 limits assumed, chain 2 of 2): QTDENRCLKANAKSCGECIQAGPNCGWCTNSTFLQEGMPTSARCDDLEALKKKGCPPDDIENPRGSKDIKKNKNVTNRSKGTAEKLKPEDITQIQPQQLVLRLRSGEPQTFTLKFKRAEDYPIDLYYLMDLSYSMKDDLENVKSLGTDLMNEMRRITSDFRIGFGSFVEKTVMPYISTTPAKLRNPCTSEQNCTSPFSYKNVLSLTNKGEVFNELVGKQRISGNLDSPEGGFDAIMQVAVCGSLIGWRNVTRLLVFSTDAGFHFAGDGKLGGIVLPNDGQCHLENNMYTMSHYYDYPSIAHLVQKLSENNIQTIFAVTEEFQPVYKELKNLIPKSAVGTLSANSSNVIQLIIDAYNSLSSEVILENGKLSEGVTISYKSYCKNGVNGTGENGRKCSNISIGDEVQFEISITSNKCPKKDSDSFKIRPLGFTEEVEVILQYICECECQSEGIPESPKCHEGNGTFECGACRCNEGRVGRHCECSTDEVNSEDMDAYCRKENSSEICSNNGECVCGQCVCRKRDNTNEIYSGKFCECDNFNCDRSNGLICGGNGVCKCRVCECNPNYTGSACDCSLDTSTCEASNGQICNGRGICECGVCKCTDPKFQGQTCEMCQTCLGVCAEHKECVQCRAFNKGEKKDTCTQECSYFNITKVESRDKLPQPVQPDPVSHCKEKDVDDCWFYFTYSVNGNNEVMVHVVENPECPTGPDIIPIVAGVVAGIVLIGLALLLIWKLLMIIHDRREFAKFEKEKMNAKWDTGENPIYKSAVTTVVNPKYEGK
T3 sequence (P35968 20-1356): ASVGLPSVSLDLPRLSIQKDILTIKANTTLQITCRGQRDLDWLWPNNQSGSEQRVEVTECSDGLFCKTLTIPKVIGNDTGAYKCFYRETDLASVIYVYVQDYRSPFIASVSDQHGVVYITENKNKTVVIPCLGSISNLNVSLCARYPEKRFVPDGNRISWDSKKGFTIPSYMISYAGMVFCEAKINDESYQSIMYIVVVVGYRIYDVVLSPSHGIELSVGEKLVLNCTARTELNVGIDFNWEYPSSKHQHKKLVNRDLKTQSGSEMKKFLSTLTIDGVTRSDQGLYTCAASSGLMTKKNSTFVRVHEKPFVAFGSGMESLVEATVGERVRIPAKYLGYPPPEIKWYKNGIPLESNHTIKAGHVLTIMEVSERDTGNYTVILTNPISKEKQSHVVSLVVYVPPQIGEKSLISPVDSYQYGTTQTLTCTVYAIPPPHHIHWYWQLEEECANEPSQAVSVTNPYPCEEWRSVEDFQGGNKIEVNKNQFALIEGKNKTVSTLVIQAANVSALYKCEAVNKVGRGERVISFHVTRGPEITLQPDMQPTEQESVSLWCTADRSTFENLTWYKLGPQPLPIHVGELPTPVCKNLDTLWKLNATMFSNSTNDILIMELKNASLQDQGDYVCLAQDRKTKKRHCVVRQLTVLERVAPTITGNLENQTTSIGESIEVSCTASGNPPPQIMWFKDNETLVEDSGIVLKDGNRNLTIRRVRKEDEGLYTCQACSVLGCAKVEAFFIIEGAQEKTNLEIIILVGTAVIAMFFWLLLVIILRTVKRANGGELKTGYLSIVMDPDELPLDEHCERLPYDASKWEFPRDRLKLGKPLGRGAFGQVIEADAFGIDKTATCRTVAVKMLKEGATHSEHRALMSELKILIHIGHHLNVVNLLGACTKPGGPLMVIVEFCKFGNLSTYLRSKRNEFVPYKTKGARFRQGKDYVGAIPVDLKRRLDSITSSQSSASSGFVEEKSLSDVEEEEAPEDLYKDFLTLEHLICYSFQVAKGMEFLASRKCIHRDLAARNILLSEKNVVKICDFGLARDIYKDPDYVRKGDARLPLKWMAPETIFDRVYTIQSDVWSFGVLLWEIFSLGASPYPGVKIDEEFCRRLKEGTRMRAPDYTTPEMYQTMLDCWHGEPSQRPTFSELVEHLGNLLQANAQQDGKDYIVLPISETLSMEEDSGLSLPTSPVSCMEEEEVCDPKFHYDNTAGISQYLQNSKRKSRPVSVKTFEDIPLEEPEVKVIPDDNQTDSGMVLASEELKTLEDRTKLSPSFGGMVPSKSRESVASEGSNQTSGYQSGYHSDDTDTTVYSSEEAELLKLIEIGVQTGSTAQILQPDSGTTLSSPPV

B1: scVEGFmut (designed binder)
chain: YVEVVKAMDVYQRSYCHPIETLVDIFQEYPDEIEYIFKPSCVPLMRCGGCCNDAGLECVPTEESNITMQIMRIKPHQGQHIGEMSFLQHNKCECRPKKDGSTSGSGKSSEGKGEVVKFMDVYQRSYCHPIETLVDIFQEYPDEIEYAFKPSCVPLMRCGGCCNDEGLECVPTEESNITMQIMRAKPHQGQHIGEMSFLQHNKCECRPKKDTR
notes: scVEGF with chain 1 F17A, E64A and chain 2 I46A, I83A (VEGF121 numbering); Soluble protein from P. pastoris with C-terminal hexahistidine tag, with or without N-terminal FLAG tag
For B1, the Kd in experiment [1] is 18 nM; in [2], > 40 nM; in [3] it was 101 nM; in experiment [4], 44 nM; in experiment [5], 17 nM; in experiment [7], 55 nM. Moreover, in [1], the koff stood at 0.00146 s⁻¹. For the same molecule, the on-rate (kon) in experiment [1] came to 83000 M⁻¹ s⁻¹. In addition, the binding result in experiment [6] and in experiment [8] was “no binding (tested: 1 µM)” in each case.

B2: scVEGF-mA (designed binder)
chain: EVAKAMDVYQKSYCHPIETLVDILQEYPDEIGYIFKPSCVPLMRCGGCCNDAGLECVPTEESNITMQIMRIKPYQGQHIGEMSFLQHNKCECRPKKDGSTSGSGKSSEGKGEVVKFMDVYQRSYCHPIETLVDIFQEYPDKIEYAFKPSCVPLMRCGGCCNNEGLECVPTEESNITMQITRAKPHQGQHIGEMSFLQHNKCECRPKKD
notes: Soluble protein from P. pastoris with C-terminal hexahistidine tag, with or without N-terminal FLAG tag (tags not included in the parts); also called scVEGFmut-A
Regarding B2, the Kd was 2.1 nM in experiment [1]; 36 nM in experiment [3]; 5.7 nM in experiment [5]; 0.5 nM in experiment [7]; 13 nM in [12]. Further, the koff in experiment [1] is 0.00049 s⁻¹. The kon in [1] turned out to be 240000 M⁻¹ s⁻¹. In addition, the binding result was “no binding” in experiment [9]; “no binding” in experiment [10]; “no binding” in experiment [11]; “no binding (tested: 1 µM)” in experiment [6]; “no binding (tested: 1 µM)” in [8].

B3: scVEGF-mJ (designed binder)
chain: EIVKARDVYQRSYCHPIETLVDILQEYPDEIEYIFKPSCVPLMRCGGCCNDAGLECVPTEESNITMQIMRIKPYQGHHIGEMSFLQHNKCECRPKKDGSTSGSGKSSEGKGEVVKFMDVYQRSYCHPIETLVDIFQEYPDEIEYAFKPSCVPLMRCGGCCNNEGLECVPTEESNITMQIMRAKPHQGQHTGEMSFLQHNKCECRPKKD
notes: Soluble protein with C-terminal hexahistidine tag, with or without N-terminal FLAG tag (tags not included in the parts); also called scVEGFmut-J
Take B3: the Kd in experiment [1] is 1.6 nM; in experiment [3], 39 nM; in [5] it was 6.9 nM; in [7], 0.5 nM; in experiment [12] it was 3 nM. The koff in experiment [1] came to 0.0003 s⁻¹. In addition, in experiment [1], the kon came to 200000 M⁻¹ s⁻¹. Besides, the binding result is on record as “no binding” in experiment [9]; “no binding” in [10]; “no binding” in [11]; “no binding (tested: 1 µM)” in experiment [6]; “no binding (tested: 1 µM)” in experiment [8].

B4: scVEGF-mE (designed binder)
chain: EVVKAMDVYQRSYCHPIETLVDILQEYPDEIGYIFKPSCVPLMRCGGCCNGAGLECVPTEESNITMQIMRIKPHRGQHIGEMSFLQHNKCECRPKKDGSTSGSGKSSEGKGEVVRFMDVYQRSYCHPIETLVDIFQEYPNEIEYAFKPSCVPLMRCGGCCNNEGLECVPTEESNITMQIMRAKPHQGQHIGEMSFLQHNKCECRPKKD
notes: Soluble protein with C-terminal hexahistidine tag, with or without N-terminal FLAG tag (tags not included in the parts); also called scVEGFmut-E
For the molecule B4, the Kd in [1] amounted to 2.8 nM; in experiment [2], 0.7 nM; in experiment [3], 53 nM; in experiment [4], 0.4 nM; in experiment [5], 6.6 nM; in experiment [7], 0.9 nM. The molecule further registered a Kd in [12] of 8 nM. In addition, the koff in [1] was 0.00061 s⁻¹. Further, in experiment [1], the kon is 220000 M⁻¹ s⁻¹. For the same molecule, the binding result is listed as “no binding” in experiment [9]; “no binding” in [10]; “no binding” in experiment [11]; “no binding (tested: 1 µM)” in experiment [6]; “no binding (tested: 1 µM)” in experiment [8].

B5: scVEGFrgd-7I (designed binder)
chain: EVVKAMDVYQRSYCHPIETLVDIFQEYPDEIEYIFKPSCVPLMRCGGCCNDAGLECVPTEESNITMQIMRIKPHQGQHIGEMSFLQHNKCECRPKKDGSTSGSGKSSEGKGEVVKFMDVYQRSYCHPIETLVDIFQEYPDEIEYAFKPSCVPLMRCGGCCNDEGLECVPTEESNITMQIMRPSVRRGDSPASHIGEMSFLQHNKCECRPKKDTR
notes: Soluble protein from P. pastoris with C-terminal hexahistidine tag, with or without N-terminal FLAG tag; also called scVEGF-7I
For B5, the Kd in [13] came to 18.6 nM; in experiment [14] it was 34 nM; in experiment [15] it was 37 nM; in experiment [16], 20 nM; in experiment [18], 13.9 nM; in experiment [19] it was 6 nM. In addition, the binding result in experiment [9], in experiment [10] and in experiment [11] was “no binding” throughout. Besides, the “IC50 of inhibition of vitronectin-mediated adhesion of HUVEC cells” value (shortened to “IC50 of inhibition … of HUVEC cells”) in [17] was < 10 nM. In addition, in experiment [20], the inhibition of VEGF-induced autophosphorylation of VEGFR-2 in HUVEC in the presence of vitronectin stood at 80%.

B6: scVEGFrgd-7H (designed binder)
chain: EVVKAMDVYQRSYCHPIETLVDIFQEYPDEIEYIFKPSCVPLMRCGGCCNDAGLECVPTEESNITMQIMRIKPHQGQHIGEMSFLQHNKCECRPKKDGSTSGSGKSSEGKGEVVKFMDVYQRSYCHPIETLVDIFQEYPDEIEYAFKPSCVPLMRCGGCCNDEGLECVPTEESNITMQIMRPGGRGDSAYHIGEMSFLQHNKCECRPKKDTR
notes: Soluble protein from P. pastoris with C-terminal hexahistidine tag, with or without N-terminal FLAG tag; also called scVEGF-7H
On to B6, for which the Kd stood at 26.5 nM in experiment [13]; 36 nM in experiment [14]; 18 nM in experiment [15]; 16 nM in [16]; 15.6 nM in experiment [18]; 12 nM in [19]. For the same molecule, the binding result in experiment [9], in [10] and in [11] was “no binding” throughout. Moreover, the “IC50 of inhibition … of HUVEC cells” value in experiment [17] is < 10 nM.

B7: scVEGFrgd-7P (designed binder)
chain: EVVKAMDVYQRSYCHPIETLVDIFQEYPDEIEYIFKPSCVPLMRCGGCCNDAGLECVPTEESNITMQIMRIKPHQGQHIGEMSFLQHNKCECRPKKDGSTSGSGKSSEGKGEVVKFMDVYQRSYCHPIETLVDIFQEYPDEIEYAFKPSCVPLMRCGGCCNDEGLECVPTEESNITMQIMRPASRGDSPPHIGEMSFLQHNKCECRPKKDTR
notes: Soluble protein from P. pastoris with C-terminal hexahistidine tag, with or without N-terminal FLAG tag; also called scVEGF-7P
Take B7: the Kd in [13] amounted to 26.9 nM; in experiment [14] it was 37 nM; in experiment [15] it was 31 nM; in [16], 21 nM; in [18] it was 29 nM; in [19], 45 nM. The binding result in [9], in experiment [10] and in [11] was “no binding” throughout. Also, the “IC50 of inhibition … of HUVEC cells” value in [17] was < 10 nM.

B8: scVEGFrgd-7B (designed binder)
chain: EVVKAMDVYQRSYCHPIETLVDIFQEYPDEIEYIFKPSCVPLMRCGGCCNDAGLECVPTEESNITMQIMRIKPHQGQHIGEMSFLQHNKCECRPKKDGSTSGSGKSSEGKGEVVKFMDVYQRSYCHPIETLVDIFQEYPDEIEYAFKPSCVPLMRCGGCCNDEGLECVPTEESNITMQIMRPHDRGDAGVHIGEMSFLQHNKCECRPKKDTR
notes: Soluble protein from P. pastoris with C-terminal hexahistidine tag, with or without N-terminal FLAG tag
With B8, the values for the Kd in [21] and in [14] were 143 nM and 140 nM, respectively.
